Results as given in US20050002950.

Legend:
[1] = target: T1, purified human fibrinogen, depleted of fibronectin and plasminogen, P02671
T1 chain 1: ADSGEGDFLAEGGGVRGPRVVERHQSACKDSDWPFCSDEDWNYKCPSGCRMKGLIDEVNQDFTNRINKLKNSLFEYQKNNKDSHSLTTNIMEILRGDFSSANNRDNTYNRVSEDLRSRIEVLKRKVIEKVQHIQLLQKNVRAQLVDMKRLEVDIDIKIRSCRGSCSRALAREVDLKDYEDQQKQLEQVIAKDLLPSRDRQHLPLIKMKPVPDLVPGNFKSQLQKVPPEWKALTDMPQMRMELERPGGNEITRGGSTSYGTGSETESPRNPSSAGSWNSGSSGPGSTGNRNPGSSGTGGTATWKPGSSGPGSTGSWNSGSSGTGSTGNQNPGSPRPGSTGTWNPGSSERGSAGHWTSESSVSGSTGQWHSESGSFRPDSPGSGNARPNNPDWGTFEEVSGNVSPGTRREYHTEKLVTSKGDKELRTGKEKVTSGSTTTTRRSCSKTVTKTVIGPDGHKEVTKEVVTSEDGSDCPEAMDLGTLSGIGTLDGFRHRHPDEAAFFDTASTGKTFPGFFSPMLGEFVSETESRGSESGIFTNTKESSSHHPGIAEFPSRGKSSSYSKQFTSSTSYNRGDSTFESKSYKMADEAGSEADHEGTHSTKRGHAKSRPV
T1 chain 2: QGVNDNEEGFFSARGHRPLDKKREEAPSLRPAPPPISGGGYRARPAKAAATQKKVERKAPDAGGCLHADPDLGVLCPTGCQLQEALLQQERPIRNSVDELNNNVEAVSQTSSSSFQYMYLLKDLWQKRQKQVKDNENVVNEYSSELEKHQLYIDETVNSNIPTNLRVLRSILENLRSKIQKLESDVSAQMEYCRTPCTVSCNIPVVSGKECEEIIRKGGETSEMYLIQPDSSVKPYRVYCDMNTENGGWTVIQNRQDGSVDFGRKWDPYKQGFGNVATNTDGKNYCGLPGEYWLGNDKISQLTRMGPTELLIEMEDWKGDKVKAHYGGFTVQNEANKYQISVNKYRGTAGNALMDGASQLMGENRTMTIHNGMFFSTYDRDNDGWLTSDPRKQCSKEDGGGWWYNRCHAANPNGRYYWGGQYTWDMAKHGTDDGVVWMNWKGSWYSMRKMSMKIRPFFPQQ
T1 chain 3: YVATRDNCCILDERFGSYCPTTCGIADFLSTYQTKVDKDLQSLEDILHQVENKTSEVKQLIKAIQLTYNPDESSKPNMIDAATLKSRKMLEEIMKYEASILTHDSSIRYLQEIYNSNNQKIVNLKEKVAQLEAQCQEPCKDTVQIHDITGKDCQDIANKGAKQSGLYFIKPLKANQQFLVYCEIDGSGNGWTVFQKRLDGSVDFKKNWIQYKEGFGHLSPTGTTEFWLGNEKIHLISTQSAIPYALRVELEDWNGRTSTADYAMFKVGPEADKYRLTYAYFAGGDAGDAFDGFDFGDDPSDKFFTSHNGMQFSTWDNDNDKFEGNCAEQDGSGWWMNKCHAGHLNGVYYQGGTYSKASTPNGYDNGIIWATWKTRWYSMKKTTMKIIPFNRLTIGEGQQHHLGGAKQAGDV

[2] = target: purified complement component C3
[3] = target: purified human fibronectin, P02751
Sequence of purified human fibronectin, P02751 (P02751 other isoform, or with tags, fused parts or gaps): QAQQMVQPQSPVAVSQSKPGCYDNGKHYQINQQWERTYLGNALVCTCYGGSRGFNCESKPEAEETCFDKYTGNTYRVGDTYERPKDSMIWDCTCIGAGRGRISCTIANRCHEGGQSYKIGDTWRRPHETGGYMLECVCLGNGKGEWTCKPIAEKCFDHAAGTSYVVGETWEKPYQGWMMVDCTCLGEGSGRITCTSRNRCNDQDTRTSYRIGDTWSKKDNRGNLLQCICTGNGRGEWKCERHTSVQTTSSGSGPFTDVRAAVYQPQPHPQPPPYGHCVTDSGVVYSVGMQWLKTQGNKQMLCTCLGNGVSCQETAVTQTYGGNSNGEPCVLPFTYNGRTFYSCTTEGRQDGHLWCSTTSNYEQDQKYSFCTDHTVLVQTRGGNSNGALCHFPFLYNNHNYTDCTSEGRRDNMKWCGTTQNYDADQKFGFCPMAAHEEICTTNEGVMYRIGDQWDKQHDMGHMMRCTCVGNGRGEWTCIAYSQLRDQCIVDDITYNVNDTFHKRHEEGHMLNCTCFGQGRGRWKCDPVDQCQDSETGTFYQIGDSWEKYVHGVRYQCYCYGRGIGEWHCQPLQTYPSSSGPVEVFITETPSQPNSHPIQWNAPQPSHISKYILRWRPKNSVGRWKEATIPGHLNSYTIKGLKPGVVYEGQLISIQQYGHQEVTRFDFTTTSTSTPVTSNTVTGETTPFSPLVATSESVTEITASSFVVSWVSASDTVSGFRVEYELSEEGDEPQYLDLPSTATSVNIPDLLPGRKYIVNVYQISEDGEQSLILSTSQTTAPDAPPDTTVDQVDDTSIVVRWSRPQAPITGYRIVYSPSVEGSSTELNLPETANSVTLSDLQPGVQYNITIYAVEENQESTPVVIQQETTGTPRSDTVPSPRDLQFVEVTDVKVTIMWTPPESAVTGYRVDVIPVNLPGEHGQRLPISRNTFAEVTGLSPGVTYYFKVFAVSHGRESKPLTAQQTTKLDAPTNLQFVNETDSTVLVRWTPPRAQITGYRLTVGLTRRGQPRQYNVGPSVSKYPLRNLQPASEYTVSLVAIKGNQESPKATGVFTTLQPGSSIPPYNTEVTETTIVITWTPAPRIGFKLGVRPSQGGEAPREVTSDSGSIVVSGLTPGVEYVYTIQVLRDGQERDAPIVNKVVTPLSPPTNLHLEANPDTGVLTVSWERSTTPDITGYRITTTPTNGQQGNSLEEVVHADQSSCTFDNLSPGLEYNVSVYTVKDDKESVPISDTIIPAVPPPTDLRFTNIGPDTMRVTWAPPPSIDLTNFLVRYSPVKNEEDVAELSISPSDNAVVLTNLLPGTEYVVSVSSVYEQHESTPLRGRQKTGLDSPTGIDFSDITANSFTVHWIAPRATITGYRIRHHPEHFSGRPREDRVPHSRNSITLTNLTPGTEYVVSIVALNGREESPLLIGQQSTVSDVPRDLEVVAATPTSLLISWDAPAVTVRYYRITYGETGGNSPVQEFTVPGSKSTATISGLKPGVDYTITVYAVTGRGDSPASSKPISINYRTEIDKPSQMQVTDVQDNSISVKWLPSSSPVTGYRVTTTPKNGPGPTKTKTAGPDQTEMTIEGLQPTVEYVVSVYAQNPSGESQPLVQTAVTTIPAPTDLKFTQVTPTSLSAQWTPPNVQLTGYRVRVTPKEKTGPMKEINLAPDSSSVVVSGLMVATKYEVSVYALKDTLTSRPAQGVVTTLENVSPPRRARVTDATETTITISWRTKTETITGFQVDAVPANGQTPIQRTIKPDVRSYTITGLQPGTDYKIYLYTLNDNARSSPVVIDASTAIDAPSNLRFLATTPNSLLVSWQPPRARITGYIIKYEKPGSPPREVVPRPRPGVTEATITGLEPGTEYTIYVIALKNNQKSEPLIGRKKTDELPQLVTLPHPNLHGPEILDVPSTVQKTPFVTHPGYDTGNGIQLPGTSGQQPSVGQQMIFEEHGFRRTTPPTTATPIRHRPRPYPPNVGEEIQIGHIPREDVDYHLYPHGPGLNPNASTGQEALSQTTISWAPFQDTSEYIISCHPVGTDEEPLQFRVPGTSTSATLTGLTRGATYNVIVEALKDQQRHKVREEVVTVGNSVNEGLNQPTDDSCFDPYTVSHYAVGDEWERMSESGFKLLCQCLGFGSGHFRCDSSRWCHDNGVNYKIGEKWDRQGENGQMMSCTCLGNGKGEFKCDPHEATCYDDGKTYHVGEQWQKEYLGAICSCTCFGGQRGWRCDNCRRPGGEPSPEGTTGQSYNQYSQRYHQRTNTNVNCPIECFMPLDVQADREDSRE

[4] = target: T2, recombinant human C5a, P01031
T2 chain: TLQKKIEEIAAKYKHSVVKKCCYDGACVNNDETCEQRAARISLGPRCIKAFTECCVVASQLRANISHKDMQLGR

B1: CspA on whole cells of GBS strain COH1 (compared with the cspA mutant TOH121) (protein)
chain: DSVINKPSDIAVEQQVKDSPTSIANETPTNNTSSALASTAQDNLVTKANNNSPTETQPVTEPHSQATETFSPAANQPVESTQEVSKTPLTKQNLAVKPTPAISKETPQNIDSNKIITVPKVWNTGYKGEGTVVAIIDSGLDTNHDALQLNDSTKAKYQNEQQMNAAKAKAGINYGKWYNNKVIFGHNYVDVNTELKEVKSTSHGMHVTSIATANPSKKDTNELIYGVAPEAQVMFMRVFSDEKRGTGPALYVKAIEDAVKLGADSINLSLGGANGSLVNADDRLIKALEMARLAGVSVVIAAGNDGTFGSGASKPSALYPDYGLVGSPSTAREAISVASYNNTTLVNKVFNIIGLENNKNLNNGLAAYADPKVSDKTFEVGKQYDYVFVGKGNDNDYKDKTLNGKIALIERGDITFTKKVVNAINHGAVGAIIFNNKAGEANLTMSLDPEASAIPAIFTQKEFGDVLAKNNYKIVFNNIKNKQANPNAGVLSDFSSWGLTADGQLKPDLSAPGGSIYAAINDNEYDMMSGTSMASPHVAGATALVKQYLLKEHPELKKGDIERTVKYLLMSTAKAHLNKDTGAYTSPRQQGAGIIDVAAAVQTGLYLTGGENNYGSVTLGNIKDKISFDVTVHNINKVAKDLHYTTYLNTDQVKDGFVTLAPQQLGTFTGKTIRIEPGQTKTITIDIDVSKYHDMLKKVMPNGYFLEGYVRFTDPVDGGEVLSIPYVGFKGEFQNLEVLEKSIYKLVANKEKGFYFQPKQTNEVPGSEDYTALMTTSSEPIYSTDGTSPIQLKALGSYKSIDGKWILQLEQKGQPHLAISPNDDQNQDAVALKGVFLRNFNNLRAKVYRADDVNLQKPLWVSAPQAGDKNYYSGNTENPKSTFLYDTEWKGTTTDGIPLEDGKYKYVLTYYSDVPGSKPQQMVFDITLDRQAPTLTTATYDKDRRIFKARPAVEHGESGIFREQVFYLKKDKDGHYNSVLRQKGEDGILVEDNKVFIKQEKDGSFILPKEVNDFSHVYYTVEDYAGNLVSAKLEDLINIGNKNGLVNVKVFSPELNSNVDIDFSYSVKDDKGNVIKKQHHGKDLNLLKLPFGTYTFDLFLYDEERANLISPQSVTVTISEKDSLKDVLFKVNLLKKAALLVEFDKLLPKGATVQLVTKTNTVVDLPKATYSPTDYGKNIPVGDYRLNVTLPSGYSTLENLDDLLVSVKEGQVNLTKLTLINKAPLINALAEQTDIISQPVFYNAGTHLKNNYLANLEKAQTLIKNRVEQTSIDNAIAALRESRQALNGKETDTSLLAKAILAETEIKGNYQFVNASPLSQSTYINQVQLAKNLLQKPNVTQSEVDKALENLDIAKNQLNGHETDYSGLHHMIIKANVLKQTSSKYQNASQFAKENYNNLIKKAELLLSNRQATQAQVEELLNQIKATEQELDGRDRVSSAENYSQSLNDNDSLNTTPINPPNQPQALIFKKGMTKESEVAQKRVLGVTSQTDNQKIKTNKLPKTGESTPKITYTILLFSLSMLGLATIKLKSIKRE
**Q.** How did the “fibrinogen degradation assay (SDS-PAGE of supernatant after 16 h with whole GBS)” value [1] turn out when B1 was run?
**A.** Its value is “COH1 cleaved the minor species (corresponding to the lower band of the doublet) of the α subunit, while the mutant did not cleave fibrinogen under the conditions employed”.

**Q.** What about the “degradation of the test substrate (Coomassie-stained SDS-PAGE or Western blotting)” value [2] of the same protein?
**A.** Its value is “No difference in the cleavage of the test substrates was observed for all substrates except fibrinogen when the mutant and wild-type strains were compared”.

**Q.** And the “degradation of the test substrate (Coomassie-stained SDS-PAGE or Western blotting)” value [3]?
**A.** Its value is “No difference in the cleavage of the test substrates was observed for all substrates except fibrinogen when the mutant and wild-type strains were compared”.

**Q.** And the “C5a protease activity (C5a-stimulated PMN adherence to gelatin-coated plastic after preincubating C5a with GBS)” value [4]?
**A.** The value was “inactivation of CspA did not appear to have a detectable effect on C5a activity”.
